This test concerns the target H-OspA, freshly biotinylated (Borrelia bavariensis strain SKT-7.1). Put plainly: BLI; BLItz; biotinylated H-OspA on streptavidin biosensors (250 μg/mL, 150 s); soluble sdAb at 7.25, 14.5 and 29 μM; 120 s association, 120 s dissociation; PBS-T, 0.02% Tween-20; global fitting (1:1).

B1: Soluble sdAb produced from PhC11 (VHH)
VHH: QVEVVASGGGLVQAGESLRLSCTASGFTFDNVAAGWFRQAPGKEREGVACISKNGRTTDSADSVKGRFTISRDTAKNTVYLQMDKLKVEDTAEYYCAATYLNTCVLSSPPENIHYWGKGTQVTVS
Take B1: the koff turned out to be 0.0586 s⁻¹ and the kon was determined as 13700 M⁻¹ s⁻¹.

B2: Soluble sdAb produced from PhC12 (VHH)
VHH: RREVVESGGGLVQPGESLRVACAASGFTVSSYIMHWVRQAPGKGLEWVSYIDHGGNTVYGDSVKGRFTISRDNAKNTLALQMNSLKPEDTALYYCVRDGDNTHFVAYDYWGQGTLVTVS
On to B2, for which the koff was 0.146 s⁻¹ and the kon is 185 M⁻¹ s⁻¹.

(Values after paper PMC5259998.)
